According to publication PMC3223260 (Biochimica et biophysica acta, 2011):

B1: MRPS36 (natural protein, UniProt P82908 1-103, looked up)
chain: MMGSKMASASRVVQVVKPHTPLIRFPDRRDNPKPNVSEVLRSAGLPSHTSSISQHSKGSKSPDWLMHQGPPDTAEMIKTLPQKYRRKLVSQEEIEFIQRGGPE
B2: C-domain with the linker region of IF3mt (IF3mt(C+L)) (domain or fragment, human, UniProt Q9H2K0 131-278, looked up)
chain: MTGLQILQERQRLREMEKANPKTGPTLRKELILSSNIGQHDLDTKTKQIQQWIKKKHLVQITIKKGKNVDVSENEMEEIFHQILQTMPGIATFSSRPQAVQGGKALMCVLRAFSKNEEKAYKETQETQERDTLNKDHGNDKESNVLHQ
B3: IF3mt lacking the N- and C-terminal extensions (IF3mtΔNC) (domain or fragment, human, UniProt Q9H2K0 61-245, looked up)
chain: TQNEGKKTKKNKTAFSNVGRKISQRVIHLFDEKGNDLGNMHRANVIRLMDERDLRLVQRNTSTEPAEYQLMTGLQILQERQRLREMEKANPKTGPTLRKELILSSNIGQHDLDTKTKQIQQWIKKKHLVQITIKKGKNVDVSENEMEEIFHQILQTMPGIATFSSRPQAVQGGKALMCVLRAFSK
B4: MRPS32 (natural protein, UniProt P82927 33-142, looked up)
chain: KSTYSSLPDDYNCKVELALTSDARTIVCYHPSVDIPYEHTKPIPRPDPVHNNEETHDLVLKTRLEEKSEHLEQGPMIEQLSKMFFTTKHRWYPRGQYHRRRRKLNPPKDR

Assays:
Assay in all cases: cross-linking
[1] = molecular target: B2
[2] = molecular target: Full length mature human mitochondrial translational initiation factor 3 (IF3mt) (human, UniProt Q9H2K0 32-278)
PTCD3 = PTCD3 (bovine (endogenous in bovine …, UniProt Q2KI62 38-688))
MRPS29 = MRPS29 (bovine (endogenous in bovine …, UniProt P82922 18-397))
MRPS18-2 = MRPS18-2 (bovine (endogenous in bovine …, UniProt P82918 36-258))
[3] = molecular target: B3

Chain of PTCD3 (bovine (Q2KI62 38-688): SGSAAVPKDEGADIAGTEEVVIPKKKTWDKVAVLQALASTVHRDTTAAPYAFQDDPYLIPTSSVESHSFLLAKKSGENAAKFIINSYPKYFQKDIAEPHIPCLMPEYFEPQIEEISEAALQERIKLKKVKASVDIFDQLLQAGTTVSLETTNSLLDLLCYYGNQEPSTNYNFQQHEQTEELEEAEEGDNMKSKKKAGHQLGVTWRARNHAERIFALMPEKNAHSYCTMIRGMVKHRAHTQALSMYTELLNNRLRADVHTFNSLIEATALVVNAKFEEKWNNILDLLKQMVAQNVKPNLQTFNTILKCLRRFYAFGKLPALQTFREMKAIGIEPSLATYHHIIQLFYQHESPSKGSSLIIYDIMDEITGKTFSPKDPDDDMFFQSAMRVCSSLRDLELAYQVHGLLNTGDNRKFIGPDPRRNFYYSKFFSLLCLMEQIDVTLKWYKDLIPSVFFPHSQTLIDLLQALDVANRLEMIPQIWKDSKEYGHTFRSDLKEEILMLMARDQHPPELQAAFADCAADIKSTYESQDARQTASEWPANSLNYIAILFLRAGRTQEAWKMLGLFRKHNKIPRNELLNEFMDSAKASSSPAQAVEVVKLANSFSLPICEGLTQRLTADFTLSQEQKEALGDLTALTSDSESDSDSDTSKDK

Row | Binder | binding result [1] | binding result [2] | binding result (PTCD3) | binding result (MRPS29) | binding result (MRPS18-2) | binding result [3]
1 | B1 | binds | binds |  |  |  | 
2 | B2 |  |  | binds | binds |  | 
3 | B3 |  |  | binds | binds | binds | 
4 | B4 | binds | binds |  |  |  | binds
